Assay results from PMC11032371.

Key:
K48-diUb = K48-diUb (UniProt P0CG48); assay: ITC; 293 K; 50 mM HEPES pH 7.4, 50 mM NaCl, 0.5 mM TCEP; cell 50–100 μM, syringe usually 10-fold; 20 injections of 2 μl; averages of at least two experiments; which partner was in the syringe not stated
K63-diUb = K63-diUb (UniProt P0CG48); assay: as above

Kd (K48-diUb): 47 µM
dH (K48-diUb): -5.87 kcal/mol
stoichiometry N (K48-diUb): 1.29
Kd (K63-diUb): 16.7 µM
dH (K63-diUb): -5.88 kcal/mol
stoichiometry N (K63-diUb): 1.71
Substance: N4BP1 (850–893) (from UniProt Q6A037 850-893) (domain or fragment)
